From IntAct's records for PubMed 29415205

B1: Glycine--tRNA ligase (Homo sapiens), P41250 (parent)
chain: MPSPRPVLLRGARAALLLLLPPRLLARPSLLLRRSLSAASCPPISLPAAASRSSMDGAGAEEVLAPLRLAVRQQGDLVRKLKEDKAPQVDVDKAVAELKARKRVLEAKELALQPKDDIVDRAKMEDTLKRRFFYDQAFAIYGGVSGLYDFGPVGCALKNNIIQTWRQHFIQEEQILEIDCTMLTPEPVLKTSGHVDKFADFMVKDVKNGECFRADHLLKAHLQKLMSDKKCSVEKKSEMESVLAQLDNYGQQELADLFVNYNVKSPITGNDLSPPVSFNLMFKTFIGPGGNMPGYLRPETAQGIFLNFKRLLEFNQGKLPFAAAQIGNSFRNEISPRSGLIRVREFTMAEIEHFVDPSEKDHPKFQNVADLHLYLYSAKAQVSGQSARKMRLGDAVEQGVINNTVLGYFIGRIYLYLTKVGISPDKLRFRQHMENEMAHYACDCWDAESKTSYGWIEIVGCADRSCYDLSCHARATKVPLVAEKPLKEPKTVNVVQFEPSKGAIGKAYKKDAKLVMEYLAICDECYITEMEMLLNEKGEFTIETEGKTFQLTKDMINVKRFQKTLYVEEVVPNVIEPSFGLGRIMYTVFEHTFHVREGDEQRTFFSFPAVVAPFKCSVLPLSQNQEFMPFVKELSEALTRHGVSHKVDDSSGSIGRRYARTDEIGVAFGVTIDFDTVNKTPHTATLRDRDSMRQIRAEISELPSIVQDLANGNITWADVEARYPLFEGQETGKKETIEE

Variants of: B1
Conditions: with hdac6_human HDAC6, Q9UBN7
hdac6_human HDAC6, Q9UBN7, sequence (Q9UBN7 whole entry): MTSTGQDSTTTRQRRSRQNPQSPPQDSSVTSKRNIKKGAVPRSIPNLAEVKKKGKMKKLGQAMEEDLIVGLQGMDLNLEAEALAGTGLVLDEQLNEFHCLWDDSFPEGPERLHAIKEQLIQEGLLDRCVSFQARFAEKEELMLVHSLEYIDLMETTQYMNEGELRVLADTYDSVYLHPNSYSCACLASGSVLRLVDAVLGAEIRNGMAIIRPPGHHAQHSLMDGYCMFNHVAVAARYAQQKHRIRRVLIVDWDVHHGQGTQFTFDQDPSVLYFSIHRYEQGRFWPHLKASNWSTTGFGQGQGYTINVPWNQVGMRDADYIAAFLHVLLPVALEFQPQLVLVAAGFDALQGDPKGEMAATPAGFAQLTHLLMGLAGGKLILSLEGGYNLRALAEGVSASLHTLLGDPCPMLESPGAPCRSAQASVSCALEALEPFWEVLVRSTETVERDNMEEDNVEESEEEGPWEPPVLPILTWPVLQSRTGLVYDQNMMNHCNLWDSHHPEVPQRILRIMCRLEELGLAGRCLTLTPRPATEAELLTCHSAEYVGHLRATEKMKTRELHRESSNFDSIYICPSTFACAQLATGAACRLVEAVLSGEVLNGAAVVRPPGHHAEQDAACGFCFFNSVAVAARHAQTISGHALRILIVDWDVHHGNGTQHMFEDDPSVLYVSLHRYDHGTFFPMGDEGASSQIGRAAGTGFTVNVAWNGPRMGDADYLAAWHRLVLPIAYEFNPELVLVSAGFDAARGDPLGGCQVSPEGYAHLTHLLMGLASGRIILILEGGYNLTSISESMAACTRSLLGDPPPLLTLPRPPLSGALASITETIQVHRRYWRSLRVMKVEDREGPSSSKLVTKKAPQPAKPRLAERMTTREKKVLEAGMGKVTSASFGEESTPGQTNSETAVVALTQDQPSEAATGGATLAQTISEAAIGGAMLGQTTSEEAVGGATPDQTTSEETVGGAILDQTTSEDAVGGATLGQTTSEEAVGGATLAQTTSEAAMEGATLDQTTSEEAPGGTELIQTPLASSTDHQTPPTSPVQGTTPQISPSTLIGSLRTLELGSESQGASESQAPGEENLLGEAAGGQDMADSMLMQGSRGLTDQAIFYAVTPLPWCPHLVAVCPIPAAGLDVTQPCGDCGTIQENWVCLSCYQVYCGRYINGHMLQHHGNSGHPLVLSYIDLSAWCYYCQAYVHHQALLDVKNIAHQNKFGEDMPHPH

Row | Variant | effect of a mutation on the interaction
1 | C211R | with no effect
